Test results: patent US20230227584A1 (published 2023)

T1: human OX40 on the cell surface (activated human T cells; HeLa_hOx40_NFkB_Luc1 reporter cells) (human, UniProt P43489 29-277)
T1 sequence: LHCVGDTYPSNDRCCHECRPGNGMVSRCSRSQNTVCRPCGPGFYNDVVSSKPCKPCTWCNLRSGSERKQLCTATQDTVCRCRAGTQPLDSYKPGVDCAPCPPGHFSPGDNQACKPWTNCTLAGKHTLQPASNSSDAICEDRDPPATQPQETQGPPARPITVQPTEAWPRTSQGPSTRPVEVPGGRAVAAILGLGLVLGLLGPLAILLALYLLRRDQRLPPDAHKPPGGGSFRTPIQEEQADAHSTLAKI


How the values were obtained:
[1] = target: human FAP (soluble second analyte, SPR) (human, UniProt Q12884 26-760); experiment: SPR (Biacore T200), biotinylated human GITR Fc(kih) on SA chip, bispecific at 200 nM, then human FAP at 500 nM
Protocol: The capacity of binding simultaneously human GITR Fc(kih) and human FAP can be assessed by surface plasmon resonance (SPR). All SPR experiments are performed on a Biacore T200 at 25° C. with HBS-EP as running buffer (0.01 M HEPES pH 7.4, 0.15 M NaCl, 3 mM EDTA, 0.005% Surfactant P20, Biacore, Freiburg/Germany). […] Immobilization levels up to 1000 resonance units (RU) are used. The bispecific antibodies targeting GITR and FAP are passed at a concentration range of 200 nM with a flow of 30 µL/minute through the flow cells over 90 seconds and dissociation was set to zero sec. Human FAP is injected as second analyte with a flow of 30 µL/minute through the flow cells over 90 seconds at a concentration of 500 nM. The dissociation is monitored for 120 sec. Bulk refractive index differences are corrected for by subtracting the response obtained in a reference flow cell, where no protein is immobilized.

[2] = target: T1, human OX40 on the cell surface …; experiment: cell-based or functional assay
[3] = target: T1, human OX40 on the cell surface …; experiment: cell-based or functional assay; remark: listed apart in the source
[4] = target: T2, human fibroblast activation protein (huFAP) on NIH/3T3-huFAP clone 19 cells (human, UniProt Q12884 1-760); experiment: flow cytometry, NIH/3T3-huFAP clone 19 cells
T2 construct: Mouse NIH/3T3 fibroblasts transfected with vector pETR4921 to express huFAP; also called cell surface FAP
Protocol: In another experiment, a mixture of 2 × 10⁵ NIH/3T3-huFAP clone 19 cells and HeLa cells in FACS buffer were added to each well of a round-bottom 96-well plates (TPP, Cat. No. 92097) and the binding assay was performed. Cells were first stained 20 min with LIVE/DEAD™ Fixable Aqua Dead Cell Stain (Molecular probes, Cat.No. L34957) in DPBS, followed after one washing step with 200 µL 4° C. […] Afterwards the cells were washed once with 200 µL FACS buffer at 4° C. and resuspended by a short vortex. Cells were further stained with 50 µL/well of 4° C. cold secondary antibody solution containing Phycoerythrin (PE)-conjugated AffiniPure anti-human IgG Fcy-fragment-specific goat IgG F(ab′)2 fragment (Jackson ImmunoResearch, Cat. No. 109-116-098) and incubated for 30 minutes at 4° C. in the dark. Samples were finally resuspended in 100 µL/well FACS-buffer and acquired the same day using with BD Fortessa running FACS Diva software.

[5] = target: T3, FcRn (biotinylated, coupled to streptavidin-sepharose); experiment: FcRn affinity chromatography; retention compared to protein standards with known affinities
T3 construct: also called neonatal Fc receptor
Protocol: For coupling, the prepared receptor was added to streptavidin-sepharose (GE Healthcare). The resulting FcRn-sepharose matrix was packed in a column housing. The column was equilibrated with 20 mM 2-(N-morpholine)-ethanesulfonic acid (MES) and 140 mM NaCl, pH 5.5 (eluent A) at a 0.5 ml/min flow rate. 30 µg of antibody samples were diluted at a volume ratio of 1: 1 with eluent A and applied to the FcRn column. The column was washed with 5 column volumes of eluent A followed by elution with a linear gradient from 20 to 100% 20 mM Tris/HCl and 140 mM NaCl, pH 8.8 (eluent B) in 35 column volumes. The analysis was performed with a column oven at 25° C. The elution profile was monitored by continuous measurement of the absorbance at 280 nm. Retention times were compared to protein standards with known affinities.

[6] = target: T1, human OX40 on the cell surface …; experiment: flow cytometry, activated human PBMC gated on CD4+ T cells

Row | binding result [1] | CD25 upregulation on CD4+ T cells, AUC compared to reference compound [%] [2] [%] | EC50 of NFκB activation (luciferase), HeLa_hOx40_NFkB_Luc1, w/ hu FAP [3] [nM] | EC50 of NFκB activation (luciferase), HeLa_hOx40_NFkB_Luc1, w/o [3] [nM] | EC50 of CD25 upregulation on CD4+ T cells, suboptimal TCR stimulation of human PBMC with NIH/3T3-huFAP cells [2] [nM] | EC50 [4] [nM] | FcRn affinity [5] | EC50 [6] [nM] | Binder
1 | binds | – | – | – | – | – | – | – | P1AE1116 GITR(852.2) x FAP (4B9) (2+1) C-terminal crossfab fusion (bispecific antibody, human IgG1, kappa, L234A L235A, 2+1 format; Human IgG1 Fc, knob-into-hole, PGLALA; VL-CH1 chain ends in EPKSC) heavy 1: not shown heavy 2: EVQLVESGGGLVQPGGSLRLSCAASGFTFSSYTMKWVRQTPGKGLEWVSVISADGGTTDHAASVKGRFTVSRDNSKNMLYLQMNSLRAEDTAIYYCAKDRANDWITGASFDYWGQGALVTVSSASTKGPSVFPLAPSSKSTSGGTAALGCLVEDYFPEPVTVSWNSGALTSGVHTFPAVLQSSGLYSLSSVVTVPSSSLGTQTYICNVNHKPSNTKVDEKVEPKSCDKTHTCPPCPAPEAAGGPSVFLFPPKPKDTLMISRTPEVTCVVVDVSHEDPEVKFNWYVDGVEVHNAKTKPREEQYNSTYRVVSVLTVLHQDWLNGKEYKCKVSNKALGAPIEKTISKAKGQPREPQVCTLPPSRDELTKNQVSLSCAVKGFYPSDIAVEWESNGQPENNYKTTPPVLDSDGSFFLVSKLTVDKSRWQQGNVFSCSVMHEALHNHYTQKSLSLSP light 1: DIQMTQSPSSLSASVGDRVTITCRASQSINSYLNWYQQKPGNAPKLLIYAASSLQSGVPSRFSGSGSGTEFTLTISSLQPEDLATYYCQQARSFPLTFGGGTKVEIKRTVAAPSVFIFPPSDRKLKSGTASVVCLLNNFYPREAKVQWKVDNALQSGNSQESVTEQDSKDSTYSLSSTLTLSKADYEKHKVYACEVTHQGLSSPVTKSFNRGEC light 2: EIVLTQSPGTLSLSPGERATLSCRASQSVTSSYLAWYQQKPGQAPRLLINVGSRRATGIPDRFSGSGSGTDFTLTISRLEPEDFAVYYCQQGIMLPPTFGQGTKVEIKSSASTKGPSVFPLAPSSKSTSGGTAALGCLVKDYFPEPVTVSWNSGALTSGVHTFPAVLQSSGLYSLSSVVTVPSSSLGTQTYICNVNHKPSNTKVDKKVEPKSC
2 | – | 13 | 0.18 | 0.23 | – | – | – | – | P1AD3690 untargeted tetravalent OX40 (49B4) antigen binding molecule (4+0) (antibody, V domains shown) VH: QVQLVQSGAEVKKPGSSVKVSCKASGGTFSSYAISWVRQAPGQGLEWMGGIIPIFGTANYAQKFQGRVTITADKSTSTAYMELSSLRSEDTAVYYCAREYYRGPYDYWGQGTTVTVSS VL: DIQMTQSPSTLSASVGDRVTITCRASQSISSWLAWYQQKPGKAPKLLIYDASSLESGVPSRFSGSGSGTEFTLTISSLQPDDFATYYCQQYSSQPYTFGQGTKVEIK
3 | – | 100 | 0.31 | 3.94 | 0.02 | 2.7 | -0.22 | 0.69 | P1AE8875 OX40(MOXR0916) x FAP(1G1a) 3+1 (bispecific antibody, human IgG1, kappa, L234A L235A, (2+1)', but its chains are those of a MOXR0916 3+1 molecule ending in EPKSC; Human IgG1 Fc, knob-into-hole, PGLALA; also called MOX0916 3+1; MOXR0916 3+1) heavy 1: not shown heavy 2: EVQLVQSGAEVKKPGASVKVSCKASGYTFTDSYMSWVRQAPGQGLEWIGDMYPDNGDSSYNQKFRERVTITRDTSTSTAYLELSSLRSEDTAVYYCVLAPRWYFSVWGQGTLVTVSSASTKGPSVFPLAPSSKSTSGGTAALGCLVEDYFPEPVTVSWNSGALTSGVHTFPAVLQSSGLYSLSSVVTVPSSSLGTQTYICNVNHKPSNTKVDEKVEPKSCGGGGSGGSGGEVQLVQSGAEVKKPGASVKVSCKASGYTFTDSYMSWVRQAPGQGLEWIGDMYPDNGDSSYNQKFRERVTITRDTSTSTAYLELSSLRSEDTAVYYCVLAPRWYFSVWGQGTLVTVSSASTKGPSVFPLAPSSKSTSGGTAALGCLVEDYFPEPVTVSWNSGALTSGVHTFPAVLQSSGLYSLSSVVTVPSSSLGTQTYICNVNHKPSNTKVDEKVEPKSCDKTHTCPPCPAPEAAGGPSVFLFPPKPKDTLMISRTPEVTCVVVDVSHEDPEVKFNWYVDGVEVHNAKTKPREEQYNSTYRVVSVLTVLHQDWLNGKEYKCKVSNKALGAPIEKTISKAKGQPREPQVCTLPPSRDELTKNQVSLSCAVKGFYPSDIAVEWESNGQPENNYKTTPPVLDSDGSFFLVSKLTVDKSRWQQGNVFSCSVMHEALHNHYTQKSLSLSP light 1: not shown light 2: EIVLTQSPATLSLSPGERATLSCRASESVDNYGLSFINWFQQKPGQAPRLLIYGTSNRGSGIPARFSGSGSGTDFTLTISSLEPEDFAVYFCQQSNEVPYTFGGGTKVEIKSSASTKGPSVFPLAPSSKSTSGGTAALGCLVKDYFPEPVTVSWNSGALTSGVHTFPAVLQSSGLYSLSSVVTVPSSSLGTQTYICNVNHKPSNTKVDKKVEPKSC
4 | – | 106 | 0.19 | – | 0.01 | 1.78 | 0.15 | 0.9 | P1AE8872 OX40 (MOXR0916) x FAP (1G1a) (2+1) C-terminal crossfab fusion (bispecific antibody, human IgG1, kappa, L234A L235A, 2+1 format; Human IgG1 Fc, knob-into-hole, PGLALA; VL-CH1 chain ends in EPKSC; also called MOX0916 2+1; MOXR0916 2+1) heavy 1: not shown heavy 2: EVQLVQSGAEVKKPGASVKVSCKASGYTFTDSYMSWVRQAPGQGLEWIGDMYPDNGDSSYNQKFRERVTITRDTSTSTAYLELSSLRSEDTAVYYCVLAPRWYFSVWGQGTLVTVSSASTKGPSVFPLAPSSKSTSGGTAALGCLVEDYFPEPVTVSWNSGALTSGVHTFPAVLQSSGLYSLSSVVTVPSSSLGTQTYICNVNHKPSNTKVDEKVEPKSCDKTHTCPPCPAPEAAGGPSVFLFPPKPKDTLMISRTPEVTCVVVDVSHEDPEVKFNWYVDGVEVHNAKTKPREEQYNSTYRVVSVLTVLHQDWLNGKEYKCKVSNKALGAPIEKTISKAKGQPREPQVCTLPPSRDELTKNQVSLSCAVKGFYPSDIAVEWESNGQPENNYKTTPPVLDSDGSFFLVSKLTVDKSRWQQGNVFSCSVMHEALHNHYTQKSLSLSP light 1: not shown light 2: EIVLTQSPATLSLSPGERATLSCRASESVDNYGLSFINWFQQKPGQAPRLLIYGTSNRGSGIPARFSGSGSGTDFTLTISSLEPEDFAVYFCQQSNEVPYTFGGGTKVEIKSSASTKGPSVFPLAPSSKSTSGGTAALGCLVKDYFPEPVTVSWNSGALTSGVHTFPAVLQSSGLYSLSSVVTVPSSSLGTQTYICNVNHKPSNTKVDKKVEPKSC
5 | – | 99 | 0.21 | – | 0.06 | 2.51 | – | 3.19 | P1AE8871 OX40 (CLC563) x FAP (1G1a) (2+1) C-terminal crossfab fusion (bispecific antibody, human IgG1, kappa, L234A L235A, 2+1 format; Human IgG1 Fc, knob-into-hole, PGLALA; VL-CH1 chain ends in EPKSC; also called CLC-563 2+1) heavy 1: not shown heavy 2: not shown light 1: not shown light 2: EIVLTQSPATLSLSPGERATLSCRASESVDNYGLSFINWFQQKPGQAPRLLIYGTSNRGSGIPARFSGSGSGTDFTLTISSLEPEDFAVYFCQQSNEVPYTFGGGTKVEIKSSASTKGPSVFPLAPSSKSTSGGTAALGCLVKDYFPEPVTVSWNSGALTSGVHTFPAVLQSSGLYSLSSVVTVPSSSLGTQTYICNVNHKPSNTKVDKKVEPKSC
6 | – | 100 | 0.24 | 0.79 | 0.04 | 2.52 | -0.14 | 3.62 | P1AE8874 OX40 (CLC563) x FAP (1G1a) (3+1) C-terminal crossfab fusion (bispecific antibody, human IgG1, kappa, L234A L235A, 3+1 format; Human IgG1 Fc, knob-into-hole, PGLALA; VL-CH1 chain ends in EPKSC; also called CLC-563 3+1) heavy 1: not shown heavy 2: not shown light 1: not shown light 2: EIVLTQSPATLSLSPGERATLSCRASESVDNYGLSFINWFQQKPGQAPRLLIYGTSNRGSGIPARFSGSGSGTDFTLTISSLEPEDFAVYFCQQSNEVPYTFGGGTKVEIKSSASTKGPSVFPLAPSSKSTSGGTAALGCLVKDYFPEPVTVSWNSGALTSGVHTFPAVLQSSGLYSLSSVVTVPSSSLGTQTYICNVNHKPSNTKVDKKVEPKSC
